Earlier results on 1 molecule are cited in patent publication US20230173142A1, “BALLISTIC DELIVERY TO MULTILAYERED TISSUES AND RELATED PARTICLES, COMPOSITIONS, METHODS AND SYSTEMS” (CALIFORNIA INSTITUTE OF TECHNOLOGY, priority 2021, published 2023).

The data set relates to wound healing. Particulars: Material: Nanofiber.

B1: G-CSF: granulocyte colony-stimulating factor (protein, UniProt P09919 31-207, looked up)
Granulocyte …: TPLGPASSLPQSFLLKCLEQVRKIQGDGAALQEKLVSECATYKLCHPEELVLLGHSLGIPWAPLSSCPSQALQLAGCLSQLHSGLFLYQGLLQALEGISPELGPTLDTLQLDVADFATTIWQQMEELGMAPALQPTQGAMPAFASAFQRRAGGVLVASHLQSFLEVSYRVLRHLAQP
For B1, the Effect result is “Improved wound closure, scar reduction, fibroblast maturation, as well”.
